Series [1] concerns the molecule itself. Kind of series: SEC-MALS; Superdex 200 Increase 10/300 GL; 50 mM Tris-HCl pH 8.0, 300 mM NaCl, 2 mM TCEP; TRIM72 WT at 11.2, 5.6 and 2.8 mg/ml; dimer in solution. (In general: Size exclusion chromatography separates by hydrodynamic size, large species first.)
Series [2] deals with the molecule itself. The experiment in a line: cryo-EM structure; cryo-ET and subtomogram averaging of proteoliposomes (80 mol% DOPS, 20 mol% cholesterol); 50 mM Tris-HCl pH 8.0, 150 mM NaCl, 1 mM TCEP; higher-order assembly of dimers on the lipid bilayer.
Series [3] deals with the molecule itself. Kind of series: cross-linking; time-dependent cross-linking of TRIM72 WT purified from mammalian cells (copurified with endogenous microvesicles).

B1: mouse TRIM72 wild type (tripartite motif-containing protein 72) (natural protein, UniProt Q1XH17 1-477, looked up)
chain: MSAAPGLLRQELSCPLCLQLFDAPVTAECGHSFCRACLIRVAGEPAADGTVACPCCQAPTRPQALSTNLQLSRLVEGLAQVPQGHCEEHLDPLSIYCEQDRTLVCGVCASLGSHRGHRLLPAAEAQARLKTQLPQQKMQLQEACMRKEKTVAVLEHQLVEVEETVRQFRGAVGEQLGKMRMFLAALESSLDREAERVRGDAGVALRRELSSLNSYLEQLRQMEKVLEEVADKPQTEFLMKFCLVTSRLQKILSESPPPARLDIQLPVISDDFKFQVWKKMFRALMPALEELTFDPSSAHPSLVVSSSGRRVECSDQKAPPAGEDTRQFDKAVAVVAQQLLSQGEHYWEVEVGDKPRWALGVMAADASRRGRLHAVPSQGLWLLGLRDGKILEAHVEAKEPRALRTPERPPARIGLYLSFADGVLAFYDASNPDVLTPIFSFHERLPGPVYPIFDVCWHDKGKNAQPLLLVGPEQEQA
notes: TRIM72 (MG53), Mus musculus, wild type, full length; Tight dimer in solution by SEC-MALS; higher-order assembly only on PS liposomes; also called TRIM72 WT; MG53; source: E. coli BL21(DE3), purified (AC, IEX, SEC); not shown: His6, N-terminal, cleaved; MBP, N-terminal, cleaved
Usually stoichiometry N stands for a count of units in the complex or per binding partner. As to B1, in series [1], the “stoichiometry N” value was found to be 2.

B2: mouse TRIM72^M138R (natural protein, UniProt Q1XH17 1-477, looked up)
chain: MSAAPGLLRQELSCPLCLQLFDAPVTAECGHSFCRACLIRVAGEPAADGTVACPCCQAPTRPQALSTNLQLSRLVEGLAQVPQGHCEEHLDPLSIYCEQDRTLVCGVCASLGSHRGHRLLPAAEAQARLKTQLPQQKRQLQEACMRKEKTVAVLEHQLVEVEETVRQFRGAVGEQLGKMRMFLAALESSLDREAERVRGDAGVALRRELSSLNSYLEQLRQMEKVLEEVADKPQTEFLMKFCLVTSRLQKILSESPPPARLDIQLPVISDDFKFQVWKKMFRALMPALEELTFDPSSAHPSLVVSSSGRRVECSDQKAPPAGEDTRQFDKAVAVVAQQLLSQGEHYWEVEVGDKPRWALGVMAADASRRGRLHAVPSQGLWLLGLRDGKILEAHVEAKEPRALRTPERPPARIGLYLSFADGVLAFYDASNPDVLTPIFSFHERLPGPVYPIFDVCWHDKGKNAQPLLLVGPEQEQA
notes: TRIM72, Mus musculus, mutation on the outer side of the H1 helix of the coiled-coil domain; source: E. coli BL21(DE3), purified (AC, IEX, SEC); not shown: His6, N-terminal, cleaved; MBP, N-terminal, cleaved
On to B2, for which the binding result in series [2] is on record as “binds”.

B3: human TRIM72 wild type, 2× Strep-tagged (natural protein, UniProt Q6ZMU5 1-477, looked up)
chain: MSAAPGLLHQELSCPLCLQLFDAPVTAECGHSFCRACLGRVAGEPAADGTVLCPCCQAPTRPQALSTNLQLARLVEGLAQVPQGHCEEHLDPLSIYCEQDRALVCGVCASLGSHRGHRLLPAAEAHARLKTQLPQQKLQLQEACMRKEKSVAVLEHQLVEVEETVRQFRGAVGEQLGKMRVFLAALEGSLDREAERVRGEAGVALRRELGSLNSYLEQLRQMEKVLEEVADKPQTEFLMKYCLVTSRLQKILAESPPPARLDIQLPIISDDFKFQVWRKMFRALMPALEELTFDPSSAHPSLVVSSSGRRVECSEQKAPPAGEDPRQFDKAVAVVAHQQLSEGEHYWEVDVGDKPRWALGVIAAEAPRRGRLHAVPSQGLWLLGLREGKILEAHVEAKEPRALRSPERRPTRIGLYLSFGDGVLSFYDASDADALVPLFAFHERLPRPVYPFFDVCWHDKGKNAQPLLLVGPEGAEA
notes: TRIM72 (MG53), human, wild type, full length; Copurified with endogenous microvesicles of about 100 nm; also called TRIM72 WT purified from mammalian cells; mammalian-expressed human TRIM72; source: HEK293T, transfected (polyethyleneimine), purified (StrepTrap HP, SEC on Superose 6 Increase)
Regarding B3, the binding result in series [3] is “binds”.

For the origin of these results see publication PMC10643145, “Structure and activation of the RING E3 ubiquitin ligase TRIM72 on the membrane” (Nature Structural & Molecular Biology, 2023).
